Measurements as given in patent US20080070238.

Target: DNase I (UniProt P00639)
Test: cleavage_in_vitro
Details: 2'-F at all nucleotides; 100 mM NaOAc, 5 mM MgCl2, 37 C, 5 min

Chain of DNase I (P00639 23-282): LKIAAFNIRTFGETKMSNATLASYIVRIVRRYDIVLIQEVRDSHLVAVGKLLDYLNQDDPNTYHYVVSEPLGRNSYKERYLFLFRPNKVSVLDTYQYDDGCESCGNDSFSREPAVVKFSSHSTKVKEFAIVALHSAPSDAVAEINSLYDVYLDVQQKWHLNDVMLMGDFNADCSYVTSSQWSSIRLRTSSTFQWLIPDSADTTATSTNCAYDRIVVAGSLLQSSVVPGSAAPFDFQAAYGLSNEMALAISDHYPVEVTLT

“NNNNNNNNNNNNNNNNNNNNNNNNNNNNNNNNNNNNNNNNCACGAGTGAAGTCTGAGCTCC [BSA-1A FNA library (primer removed)]” was tested, and the activity (fold more stable than DNA) was > 100.
